Data on eight molecules can be found in paper PMC10870172, “Single-molecule FRET probes allosteric effects on protein-translocating pore loops of a AAA+ machine” (Biophysical Journal, 2024).

B4: Thermus thermophilus ClpB variant with truncated N-terminal domain, starting at residue 141 (Val) (domain or fragment)
chain: not shown
notes: ClpB, Thermus thermophilus, N-terminal domain truncated, starting at residue 141 (Val); numbering as in full-length TT ClpB; no cysteine replacement is printed; Theoretical MW of the hexamer 484.8 kDa (D1:p9); also called wt; dNClpB; source: E. coli, purified

Data set [1] deals with the molecule itself. Put plainly: native gel or EMSA; native PAGE (6% acrylamide) of 1:100 labeled:unlabeled ClpB samples after the refolding and mixing procedure; stained with Coomassie Blue, panel a also imaged with a Typhoon scanner at 532 nm; run at 4°C, 30 V, 2 mM ATP, 4 mM Mg2+.
Data set [2] concerns the molecule itself. Kind of data set: native gel or EMSA; native gel (6% acrylamide), stained with Coomassie Blue; run at 4°C, 30 V, 2 mM ATP, 4 mM Mg2+; NativeMark Unstained Protein Standard. (In general: In EMSA bound probe runs differently from free probe, usually more slowly.)
The target of data set [3] is B4. Put plainly: native gel or EMSA; native PAGE (6% acrylamide) of 1:100 labeled:unlabeled ClpB samples after the refolding and mixing procedure; stained with Coomassie Blue, panel a also imaged with a Typhoon scanner at 532 nm; run at 4°C, 30 V, 2 mM ATP, 4 mM Mg2+. The note with it: both partners purified.
Data set [4] has as its target T1, PL1 BB: reassembled ClpB hexamer with one Alexa-labelled S236C-S359C E271A/E668A protomer among unlabelled … (Thermus thermophilus, UniProt Q9RA63 141-854; Q9RA63 141-854, S236C | S359C | E271A | E668A | E271A | E668A, Alexa Fluor 488 C5 maleimide and Alexa Fluor 594 C5 maleimide on the cysteines at 236 and 359).
T1 construct: ClpB, Thermus thermophilus, N-terminal domain truncated, starting at residue 141 (Val); numbering as in full-length TT ClpB; ClpB, Thermus thermophilus, N-terminal domain truncated, starting at residue 141 (Val), unlabelled cysteine-less; With the 1:100 ratio most hexamers hold no labelled protomer; only hexamers with one labelled protomer give the signal; also called PL1 double-Walker B …
Kind of data set: other fluorescence titration; single-molecule FRET on freely diffusing reassembled ClpB hexamers (1:100 labeled:unlabeled, ~50 pM labeled, ~5 nM total ClpB), increasing concentrations of unlabeled κ-casein; ratio of the H2MM-derived population of state 1 with and without casein fitted to a simple binding isotherm; 25 mM HEPES, 25 mM KCl, 10 mM MgCl2, 2 mM ATP, 0.01% Tween 20, pH 8, 22°C. The settings on record: both partners purified.

In data set [5] the target is T2, PL3 BB: reassembled ClpB hexamer with one Alexa-labelled S359C-Y646C E271A/E668A protomer among unlabelled … (Thermus thermophilus, UniProt Q9RA63 141-854; Q9RA63 141-854, S359C | Y646C | E271A | E668A | E271A | E668A, Alexa Fluor 488 C5 maleimide and Alexa Fluor 594 C5 maleimide on the cysteines at 359 and 646).
T2 construct: ClpB, Thermus thermophilus, N-terminal domain truncated, starting at residue 141 (Val); numbering as in full-length TT ClpB; ClpB, Thermus thermophilus, N-terminal domain truncated, starting at residue 141 (Val), unlabelled cysteine-less; With the 1:100 ratio most hexamers hold no labelled protomer; only hexamers with one labelled protomer give the signal; also called PL3 double-Walker B …
Described as above. The settings on record: both partners purified.

B1: ClpB (N-terminally truncated, from residue 141) K204T (domain or fragment, Thermus thermophilus, UniProt Q9RA63 141-854, looked up)
chain: VQTEHAESTYNALEQYGIDLTRLAAEGKLDPVIGRDEEIRRVIQILLRRTKNNPVLIGEPGVGTTAIVEGLAQRIVKGDVPEGLKGKRIVSLQMGSLLAGAKYRGEFEERLKAVIQEVVQSQGEVILFIDELHTVVGAGKAEGAVDAGNMLKPALARGELRLIGATTLDEYREIEKDPALERRFQPVYVDEPTVEETISILRGLKEKYEVHHGVRISDSAIIAAATLSHRYITERRLPDKAIDLIDEAAARLRMALESAPEEIDALERKKLQLEIEREALKKEKDPDSQERLKAIEAEIAKLTEEIAKLRAEWEREREILRKLREAQHRLDEVRREIELAERQYDLNRAAELRYGELPKLEAEVEALSEKLRGARFVRLEVTEEDIAEIVSRWTGIPVSKLLEGEREKLLRLEEELHKRVVGQDEAIRAVADAIRRARAGLKDPNRPIGSFLFLGPTGVGKTELAKTLAATLFDTEEAMIRIDMTEYMEKHAVSRLIGAPPGYVGYEEGGQLTEAVRRRPYSVILFDEIEKAHPDVFNILLQILDDGRLTDSHGRTVDFRNTVIILTSNLGSPLILEGLQKGWPYERIRDEVFKVLQQHFRPEFLNRLDEIVVFRPLTKEQIRQIVEIQLSYLRARLAEKRISLELTEAAKDFLAERGYDPVFGARPLRRVIQRELETPLAQKILAGEVKEGDRVQVDVGPAGLVFAVPARVEA
notes: ClpB, Thermus thermophilus, N-terminal domain truncated, starting at residue 141 (Val); numbering as in full-length TT ClpB; also called A1; Walker A1; source: E. coli, purified
For the molecule B1, the binding result in data set [1] is given as “binds”.

B2: ClpB (N-terminally truncated, from residue 141) double Walker B mutant E271A/E668A (domain or fragment, Thermus thermophilus, UniProt Q9RA63 141-854, looked up)
chain: VQTEHAESTYNALEQYGIDLTRLAAEGKLDPVIGRDEEIRRVIQILLRRTKNNPVLIGEPGVGKTAIVEGLAQRIVKGDVPEGLKGKRIVSLQMGSLLAGAKYRGEFEERLKAVIQEVVQSQGEVILFIDALHTVVGAGKAEGAVDAGNMLKPALARGELRLIGATTLDEYREIEKDPALERRFQPVYVDEPTVEETISILRGLKEKYEVHHGVRISDSAIIAAATLSHRYITERRLPDKAIDLIDEAAARLRMALESAPEEIDALERKKLQLEIEREALKKEKDPDSQERLKAIEAEIAKLTEEIAKLRAEWEREREILRKLREAQHRLDEVRREIELAERQYDLNRAAELRYGELPKLEAEVEALSEKLRGARFVRLEVTEEDIAEIVSRWTGIPVSKLLEGEREKLLRLEEELHKRVVGQDEAIRAVADAIRRARAGLKDPNRPIGSFLFLGPTGVGKTELAKTLAATLFDTEEAMIRIDMTEYMEKHAVSRLIGAPPGYVGYEEGGQLTEAVRRRPYSVILFDAIEKAHPDVFNILLQILDDGRLTDSHGRTVDFRNTVIILTSNLGSPLILEGLQKGWPYERIRDEVFKVLQQHFRPEFLNRLDEIVVFRPLTKEQIRQIVEIQLSYLRARLAEKRISLELTEAAKDFLAERGYDPVFGARPLRRVIQRELETPLAQKILAGEVKEGDRVQVDVGPAGLVFAVPARVEA
notes: ClpB, Thermus thermophilus, N-terminal domain truncated, starting at residue 141 (Val); numbering as in full-length TT ClpB; also called BB; source: E. coli, purified
Take B2: the “stoichiometry N” value in data set [2] is 6.

B3: ClpB (N-terminally truncated, from residue 141) E271A (domain or fragment, Thermus thermophilus, UniProt Q9RA63 141-854, looked up)
chain: VQTEHAESTYNALEQYGIDLTRLAAEGKLDPVIGRDEEIRRVIQILLRRTKNNPVLIGEPGVGKTAIVEGLAQRIVKGDVPEGLKGKRIVSLQMGSLLAGAKYRGEFEERLKAVIQEVVQSQGEVILFIDALHTVVGAGKAEGAVDAGNMLKPALARGELRLIGATTLDEYREIEKDPALERRFQPVYVDEPTVEETISILRGLKEKYEVHHGVRISDSAIIAAATLSHRYITERRLPDKAIDLIDEAAARLRMALESAPEEIDALERKKLQLEIEREALKKEKDPDSQERLKAIEAEIAKLTEEIAKLRAEWEREREILRKLREAQHRLDEVRREIELAERQYDLNRAAELRYGELPKLEAEVEALSEKLRGARFVRLEVTEEDIAEIVSRWTGIPVSKLLEGEREKLLRLEEELHKRVVGQDEAIRAVADAIRRARAGLKDPNRPIGSFLFLGPTGVGKTELAKTLAATLFDTEEAMIRIDMTEYMEKHAVSRLIGAPPGYVGYEEGGQLTEAVRRRPYSVILFDEIEKAHPDVFNILLQILDDGRLTDSHGRTVDFRNTVIILTSNLGSPLILEGLQKGWPYERIRDEVFKVLQQHFRPEFLNRLDEIVVFRPLTKEQIRQIVEIQLSYLRARLAEKRISLELTEAAKDFLAERGYDPVFGARPLRRVIQRELETPLAQKILAGEVKEGDRVQVDVGPAGLVFAVPARVEA
notes: ClpB, Thermus thermophilus, N-terminal domain truncated, starting at residue 141 (Val); numbering as in full-length TT ClpB; also called B1; Walker B1; source: E. coli, purified
B3: in data set [1], the binding result is “binds”.

Turning to B4, the “stoichiometry N” value in data set [2] was determined as 6.

B5: ClpB (N-terminally truncated, from residue 141) S359C-Y646C, labelled with Alexa Fluor 488 and Alexa Fluor 594 (domain or fragment)
chain: not shown
modifications: Alexa Fluor 488 C5 maleimide and Alexa Fluor 594 C5 maleimide on the cysteines at 359 and 646
notes: ClpB, Thermus thermophilus, N-terminal domain truncated, starting at residue 141 (Val); numbering as in full-length TT ClpB; The labelled protomer alone, as mixed 1:100 with unlabelled ClpB (Dm4); also called PL3; PL3 construct S359C-Y646C; source: E. coli, purified, labelled
Regarding B5, in data set [3], the binding result was “binds”.

B6: ClpB (N-terminally truncated, from residue 141) K347A (domain or fragment)
chain: not shown
notes: ClpB, Thermus thermophilus, N-terminal domain truncated, starting at residue 141 (Val); numbering as in full-length TT ClpB; also called hyper; hyperactive mutant; source: E. coli, purified
As to B6, in data set [1], the binding result is listed as “binds”.

B7: ClpB (N-terminally truncated, from residue 141) E668A (domain or fragment)
chain: not shown
notes: ClpB, Thermus thermophilus, N-terminal domain truncated, starting at residue 141 (Val); numbering as in full-length TT ClpB; also called B2; Walker B2; source: E. coli, purified
For the molecule B7, the binding result in data set [1] is recorded as “binds”.

B8: κ-casein (natural protein)
chain: not shown
notes: κ-casein (Sigma Aldrich), unlabelled soluble model substrate protein; also called model substrate protein; source: bought: Sigma Aldrich
Regarding B8, the Kd amounted to 2000 nM in data set [4] and 1600 nM in data set [5].

What is called stoichiometry N is a count of units in the complex or per binding partner. A word on the Kd: it is the concentration at which binding is half-saturated.
